# B1: lactoferrin (protein, UniProt P02788 20-710, looked up)
# Lactotransferrin: GRRRSVQWCAVSQPEATKCFQWQRNMRKVRGPPVSCIKRDSPIQCIQAIAENRADAVTLDGGFIYEAGLAPYKLRPVAAEVYGTERQPRTHYYAVAVVKKGGSFQLNELQGLKSCHTGLRRTAGWNVPIGTLRPFLNWTGPPEPIEAAVARFFSASCVPGADKGQFPNLCRLCAGTGENKCAFSSQEPYFSYSGAFKCLRDGAGDVAFIRESTVFEDLSDEAERDEYELLCPDNTRKPVDKFKDCHLARVPSHAVVARSVNGKEDAIWNLLRQAQEKFGKDKSPKFQLFGSPSGQKDLLFKDSAIGFSRVPPRIDSGLYLGSGYFTAIQNLRKSEEEVAARRARVVWCAVGEQELRKCNQWSGLSEGSVTCSSASTTEDCIALVLKGEADAMSLDGGYVYTAGKCGLVPVLAENYKSQQSSDPDPNCVDRPVEGYLAVAVVRRSDTSLTWNSVKGKKSCHTAVDRTAGWNIPMGLLFNQTGSCKFDEYFSQSCAPGSDPRSNLCALCIGDEQGENKCVPNSNERYYGYTGAFRCLAENAGDVAFVKDVTVLQNTDGNNNEAWAKDLKLADFALLCLDGKRKPVTEARSCHLAMAPNHAVVSRMDKVERLKQVLLHQQAKFGRNGSDCPDKFCLFQSETKNLLFNDNTECLARLHGKTTYEKYLGPQYVAGITNLKKCSTSPLLEACEFLRK
# notes: lactoferrin alone, aqueous solution with a concentration of 60 mg/ml and 80 mg/ml; protein having an antioxidizing action
# System: Streptococcus mutans ATCC 35668
# Test: antibacterial effectiveness by bacterial count on Petri plates
# Assay type: cell-based
# Conditions: growth of Streptococcus mutans ATCC 35668
# Protocol: Following the same procedure described in Example 4, two compositions of lactoferrin, hydroxyapatite and PHA were prepared, using solutions of lactoferrin with concentrations equal to 60 mg/ml and 80 mg/ml, and the same aqueous suspensions of HA and PHA used in Example (weight ratio between lactoferrin and mixture of HA+PHA equal to 1:1). The antibacterial effectiveness of these compositions was assessed, by means of bacterial count on Petri plates with respect to the growth of Streptococcus mutans ATCC 35668.
molecule,measurement,setting,value
B1,Reduction bacterial growth (%),lactoferrin solution 60 mg/ml,30%
same,Reduction bacterial growth (%),lactoferrin solution 80 mg/ml,35%

# Source: patent publication US20190159997A1, “COMPOSITIONS COMPRISING POLYESTERS OF BIOLOGICAL ORIGIN AND BIOCOMPATIBLE INORGANIC COMPOUNDS, AND USES THEREOF IN THE COSMETIC FIELD” (BIO-ON S.p.A., priority 2016, published 2019)
